From patent US20200048328A1 (Bristol-Myers Squibb, published 2020)

Assays:
human serum albumin [1] = target: T1, human serum albumin (human, UniProt P02768 25-609); assay: SPR, albumin immobilized, acetate pH 7.4
T1 construct: immobilized on chips or coated on plates elsewhere; also called HSA; HuSA

mouse serum albumin [2] = target: T2, mouse serum albumin (mouse, UniProt P07724 25-608); assay: SPR, albumin immobilized, acetate pH 7.4; acetate pH 7.4, MuSA
T2 construct: also called MSA; MuSA

mouse serum albumin [3] = target: T2, mouse serum albumin; assay: SPR, albumin immobilized, HBSP pH 7.4
rhesus serum albumin [4] = target: T3, rhesus serum albumin (rhesus, UniProt Q28522 17-600); assay: SPR, albumin immobilized, HBSP pH 7.4
T3 construct: also called RhSA; Rh-SA
T3 sequence (Q28522 17-600 limits assumed): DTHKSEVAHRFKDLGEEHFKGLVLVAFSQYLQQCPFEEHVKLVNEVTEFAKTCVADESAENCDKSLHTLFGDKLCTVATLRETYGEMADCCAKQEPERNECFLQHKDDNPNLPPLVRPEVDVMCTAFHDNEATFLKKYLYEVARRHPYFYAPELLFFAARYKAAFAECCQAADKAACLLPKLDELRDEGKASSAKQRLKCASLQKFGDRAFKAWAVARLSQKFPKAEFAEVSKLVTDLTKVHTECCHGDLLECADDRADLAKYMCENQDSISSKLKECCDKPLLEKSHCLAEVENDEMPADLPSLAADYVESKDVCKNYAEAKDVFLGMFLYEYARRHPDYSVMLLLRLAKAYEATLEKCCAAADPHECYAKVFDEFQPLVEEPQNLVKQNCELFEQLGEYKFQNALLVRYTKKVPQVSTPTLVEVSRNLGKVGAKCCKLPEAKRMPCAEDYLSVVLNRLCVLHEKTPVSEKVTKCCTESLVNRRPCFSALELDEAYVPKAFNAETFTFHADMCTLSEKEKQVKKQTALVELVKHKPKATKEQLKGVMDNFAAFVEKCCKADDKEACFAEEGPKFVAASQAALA

human serum albumin [5] = target: T1, human serum albumin; assay: SPR, albumin immobilized, HBSP pH 7.4
mouse serum albumin [6] = target: T2, mouse serum albumin; assay: SPR, albumin immobilized, acetate pH 7.4
rhesus serum albumin [7] = target: T3, rhesus serum albumin; assay: SPR, albumin immobilized, acetate pH 7.4
human serum albumin [8] = target: T1, human serum albumin; assay: SPR, albumin immobilized, acetate pH 7.4; remark: listed apart in the source

T2 sequence (P07724 25-608 limits assumed): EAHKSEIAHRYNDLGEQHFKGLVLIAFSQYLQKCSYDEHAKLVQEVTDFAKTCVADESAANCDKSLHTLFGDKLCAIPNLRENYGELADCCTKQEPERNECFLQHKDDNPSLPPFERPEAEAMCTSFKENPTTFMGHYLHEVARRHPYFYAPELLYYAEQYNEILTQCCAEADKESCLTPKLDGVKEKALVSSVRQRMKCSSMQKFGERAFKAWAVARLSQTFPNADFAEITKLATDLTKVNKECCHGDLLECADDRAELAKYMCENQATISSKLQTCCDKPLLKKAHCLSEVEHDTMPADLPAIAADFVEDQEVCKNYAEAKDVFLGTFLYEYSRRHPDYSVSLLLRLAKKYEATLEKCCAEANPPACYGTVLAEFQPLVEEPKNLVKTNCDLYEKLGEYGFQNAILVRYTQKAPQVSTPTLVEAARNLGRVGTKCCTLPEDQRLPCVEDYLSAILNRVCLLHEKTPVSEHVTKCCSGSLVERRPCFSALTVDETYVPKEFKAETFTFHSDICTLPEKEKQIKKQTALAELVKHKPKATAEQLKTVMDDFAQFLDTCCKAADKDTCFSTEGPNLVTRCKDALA

B1: PKE2 Adnectin 2629_E06 (designed binder)
chain: MGVSDVPRDLEVVAATPTSLLISWDAPAVTVRYYRITYGREVQKYSDLGPLYIYQEFTVPGSKSTATISGLKPGVDYTITVYAVTGSGESPASSKPISINYRTEIDKPSQHHHHHH
notes: 10Fn3 domain with modified CD loop; the entry includes the His6 tail; also called ADX_2629_E06
- Kd (human serum albumin [1]): 9.74 nM
- koff (human serum albumin [1]): 0.000272 s⁻¹
- kon (human serum albumin [1]): 28000 M⁻¹ s⁻¹
- kon (mouse serum albumin [2]): ~76800 M⁻¹ s⁻¹
- Kd (mouse serum albumin [3]): 3.3 nM
- koff (mouse serum albumin [3]): 0.000262 s⁻¹
- kon (mouse serum albumin [3]): 79600 M⁻¹ s⁻¹
- Kd (rhesus serum albumin [4]): 11.4 nM
- koff (rhesus serum albumin [4]): 0.000267 s⁻¹
- kon (rhesus serum albumin [4]): 23500 M⁻¹ s⁻¹
- Kd (human serum albumin [5]): 10.7 nM
- koff (human serum albumin [5]): 0.000192 s⁻¹
- kon (human serum albumin [5]): 17900 M⁻¹ s⁻¹
- Kd (mouse serum albumin [6]): 11.2 nM
- koff (mouse serum albumin [6]): 0.000503 s⁻¹
- Kd (rhesus serum albumin [7]): 10.4 nM
- koff (rhesus serum albumin [7]): 0.000297 s⁻¹
- kon (rhesus serum albumin [7]): 28600 M⁻¹ s⁻¹
- Kd (human serum albumin [8]): 9.6 nM
- koff (human serum albumin [8]): 0.000243 s⁻¹
- kon (human serum albumin [8]): 25400 M⁻¹ s⁻¹
